Test results: publication doi:10.1101/2020.04.03.022970v1

Substrate: N[C@@H](Cc1c[nH]c2ccccc12)C(=O)O
Test: radiolabelled uptake in intact E. coli MQ614
Type: cell-based, Halalkalibacterium halodurans
Settings: 10-second uptake, 10 mM Tris/Mes pH 8.5, 150 mM NaCl, labelled compound

B1: MhsT (Halalkalibacterium halodurans C-125) (protein)
chain: SLKQQTGREQWASRLGFILAAMGSAVGLGNIWRFSYVTGENGGAAFLLVYLGFIALIGIPIVLAEFTIGRRAQSDAVGSFEKLAPGKPWKVAGLMGVAAGFLILSFYGVIAGWILFYLFNYITGQLWSAPAEGFGGFFEGFIANPTLPLFWQALFMIATIWIVAIGVKKGIERSNKILMPLLGVLLIALAIYSLTLGGAKEGLAFLFSPDWSALKDPGVYLAAISQAFFTLSLGMGALITYGSYVSKDSRLPGAAVSVAGLDTAFAIIAGIMIFPAVFALGLSPSGGPGLVFVVLPDIFDSIRLGPIVGIAFFILLGAAALSSAVSLLEVPVAYFMRKFDWSRKQAAITLGVIITLLGIPSSLSFGVLGEVTIIPGLNIFDSVDFIASSVFLPLGGMIIALFIGWGWKTSDALAESDLTDSVWGKLWILSLRFIAPIAILIVFLSAFQIFFN
B1 showed a Km of 1.07 ± 0.19 µM.
